Assay results published in the DeepSol protein solubility set.

Experiment: soluble on expression in E. coli; label from the status in PepcDB or PDB records

Q: With “ETAADNAAYWSIATTMRSDNSALSAVQDALGLGAAKVDTAYDALESTIEVVKQIKAKLVAAYGVGADRGKIQDEIKQLQEQLKSISESASFSGENWLQASISNSGTPPVAESITKKVVASFTRTGSGNVGVTTVDYTLDSSTVLFDLSGGKLGILDKNAVFVSKTETEVMQTSTTAGKTSQAGYVVEKLSDAQIGALNATTTDTNTDPNLYSNGTDNYLRLAENVWVKATATNPSSGGTTVSPAYRDTGSTDWFYDVSAGTASANRSLGFSVSTLDLGNLDVVAAAMGGFAGGGTTYTGADAIDMMMSFVDKQLEAMTSTASSLGSLQSRISMQENFVSSLMDVIDKGVGRLV” as the sequence, how does the “soluble on expression in E. coli” value read?
A: not soluble

Q: For “AIAMQISDTYNQKHSLFNAMNRFIGAVNNMDQTVMVPSLLRDVPLDMEVKDEVHNTIGATNYFSRTDMHGYYILLKSIRNDIEWGVVQGEDRKKDKLSNMEISRLEDGDGEEDLEKQFHYHLSGLHTVLNKLTRKAHILTNRYKEEIGFGSWGH”, which “soluble on expression in E. coli” value is on record?
A: soluble

Q: Which “soluble on expression in E. coli” value does the source give for “MALVEFLMETLDGLKGTDIVHFDVRGKSSITDNMIICTGTSSRQVSAMADNLITECKKAGFETFGEEGKNTADWIVVDLGQAIVHIMQRDAREMYQLEKLWALEHHHHHH” here?
A: not soluble

Q: For “MRGVTPINPQKKIEADSNPVKESDYYEGERLTHLLDLIQRGIETSKLSNVNSLPEKIWLKKQIAIGINEVTRVLERMNPNNTSDQQQNPKQLQVVILVADCKPRMLTKHIPNLAASRNVPVLYVRDNKRASLRLGELVKLKTALAIGIKARGNDLNLLLKQILPRDS”, which “soluble on expression in E. coli” value is on record?
A: soluble

Q: Which “soluble on expression in E. coli” value does the source give for “MHHHHHHMGIVTGPIIDHSKENDVMNEAEQNAETVRRGYAAFNSGDMKTLTELFDENASWHTPGRSRIAGDHKGREAIFAQFGRYGGETGGTFKAVLLHVLKSDDGRVIGIHRNTAERGGKRLDVGCCIVFEFKNGRVIDGREHFYDLYAWDEFWR” here?
A: soluble

Q: With “MPPRCYNSNSRRAELLERIQSDIPATVAQALSEDLGGEVNADRDLTAQLLPADKQATATIITREDGIFCGQRWLNEVFIQLGAQISIQWLVTDGDKLTANQTLCHLTGPARILLTGERTALNFLQTLSGVATEVSRYVVQLAGLKTQLLDTRKTLPGLRTALKYAVLCGGGNNHRLGLSDAFLIKENHIIAAGSIKEAVAKAFWIHADVPIEVEVESLDELQQALEAGADIVMLDNFTIPMMRDAVKMRDDHAKTQGSAQLEVSGNVTLETLRSYAETGIDFISVGALTKHITALDLSMRFQ” as the sequence, how does the “soluble on expression in E. coli” value read?
A: not soluble

Q: For “MLEIDNQTPLESDFLLLEKIANVLAPTQIIELVLVSDETIREINKDLRGCDYATDVLSFPLEAIPHTPLGSVVINAPLAQTNALKLGHSLENEIALLFIHGVLHLLGYDHEKDKGEQRQKESELIKAFNLPLSLIERTQDLEHHHHHH”, which “soluble on expression in E. coli” value is on record?
A: not soluble

Q: Which “soluble on expression in E. coli” value does the source give for “MGSDKIHHHHHHMERNEIEQLVAHGIFPYDQQAKTRLIETAISYILLKGSYAYKIKKNIKLSFLDFSTLEKRRHFCYEELRLNQRLAKDMYINVFAVSKKGKQWSISTGPAKAKEYVILMKGMNPDHQLNALLKKNRITKKPIRQLAQQLADFHQNEKSLSLTYDPFFLSREFADIEKFSSTIEKKLGVDYYKLVQTCIQLSNHFVLLQQEFISKRPCLGYFKNCHGDLHSQNIFIEKKPVIFDCIEFREAFRHIDVLNEIAFLCMDLETYGYADLSKIFLTDYIKKTGYAFGKKEQLLFTYFKAYRSCIRAKVHTIEMSQHPSSTQIKEKVKKYIEGMAGYMIEIAGKF” here?
A: not soluble

Q: For “SGMYKIILNQTARYFAKFAPDNEQNILWGLPLQYGWQYRTGRLADPTRRTNCGYESGDHMCISVDSWWADLNYFLSSLPFLAAVDSGVMGISSDQVRLLPPPKNERKFCYDVSSCRSSFPETMNKWNTFYQYLQSPFSKFDDLLKYLWAAHTSTLADNIKSFEDRYDYYSKAEAHFERSWVLAVDHLAAVLFPTTLIRSYKFQKGMPPRILLNTDVAPFISDFTAFQNVVLVLLNMLDNVDKSIGYLCTEKSNVYRDHSESSSRSYGNNS”, which “soluble on expression in E. coli” value is on record?
A: not soluble

Q: Which “soluble on expression in E. coli” value does the source give for “HQPVSFGLSVRKSLPKGFSVETGLTYTLLSSDIKRQGDTKMQSQKLHYIGIPVRGNWNFLEKKYFTLYVSAGGMVEKCVYGKLADDKVNVKPLQFSVAGAVGAQFNATDHVGLYVEPGVSYFFDDGSKVQTIRKERPCNFNLQAGLRFTY” here?
A: not soluble

Q: Which “soluble on expression in E. coli” value does the source give for “QKPYKETYGISHITRHDMLQIPEQQKNEKYQVPEFDSSTIKNISSAKGLDVWDSWPLQNADGTVANYHGYHIVFALAGDPKNADDTSIYMFYQKVGETSIDSWKNAGRVFKDSDKFDANDSILKDQTQEWAGSATFTSDGKIRLFYTDFSGKHYGKQTLTTAQVNVSASDSSLNINGVEDYKSIFDGDGKTYQNVQQFIDEGNYSSGDNHTLRDPHYVEDKGHKYLVFEANTGTEDGYQGEESLFNKAYYGKSTSFFRQESQKLLQSDKKRTAELANGALGMIELNDDYTLKKVMKPLIASNTVTDEIERANVFKMNGKWYLFTDSRGSKMTIDGITSNDIYMLGYVSNSLTGPYKPLNKTGLVLKMDLDPNDVTFTYSHFAVPQAKGNNVVITSYMTNRGFYADKQSTFAPSFLLNIKGKKTSVVKDSILEQGQLTVN” here?
A: soluble

Q: For “MMPAHETYDVIVVGAGAGGMTAAAVAAAEGLSVLVIEKTAFVGGTTAWSDGMVWIPANPKMKAAGLSDSVADAVQYLSSTVPEPANAGLRAAFLARGPEAVTYLEAKTEVRFLPVKTCPDYYPERLGATSGGRALEPVAFDGTRLGRAFARLRPPLPEFTLFGGMMVNRLDIPHLRRIGKSLRSTLRAARLVSEYMMQRLRSPRGTTLHLGNALAARLYASLLARQGEILFSADVEDLSMQGDRVSGVVIRHGSRDRAIAARRGVVLATGGFSHDAALRKRFFPPAAGFVSATSPSGTGDGLRLAATAGAALNTEATSPAYWVPASLFRRADGSRGVFPHTVTDRAKPGVIAVNAAGRRFVNEALSYHEFVLAMLRDGHGEPDRPFYLICDRQFLWSYGLGRIKPFTRNFRRYVASGELVEAPDITQLAAKIGIKPSVLTATIAAYNIDAKEGRDPEFGRGTTIYQRHLGDISHKPNPCVAPILRAPYFALRIYPADLGTAIGMKVDAQARVLRGDGTPIAGLYACGNDMGSIMNGNCPGPGITLGPALTFGYIAGRHLAEGGVTRELAKEQMLEHHHHHH”, which “soluble on expression in E. coli” value is on record?
A: not soluble

Q: For “MSAKNRLDVFDKKTRDVIESDLVKMRGYKRNIGSRNQEMTMKNVEKKVEQMGAKNEEMFSMISKIMQKPNSTGHLQWDSQTLADLMNKSDSFDDDQESLNMPRSSESSAMSVRNRTLERQSEPVRKSPKAAPKVKNEAGITASYVTSEMSDRRSIDEVMVRAAKNAKREEKFDLGFFKFISLAGHILESSCKHSEDQEDPSCLKCKYDRELKLEERPEMVFARNSLTIQFGRLGSIEFNALDALKMVCADRLPDVKVGASTVWQSARQDRIQQISEHQKPFDWTYTTHYKGTVTGCQVTPTTERIDMERLKRRDEILFSSSITLFEDELADHGIAQLLARVRVMRGYFFVLLRFYMRVDNVLLRVCDTRIVGNEFDGHVIREWQLREAKYGNLGHVDPEELLDVDRAWMHLPVVEEHFDRVSVDRERLF”, which “soluble on expression in E. coli” value is on record?
A: not soluble

Q: Which “soluble on expression in E. coli” value does the source give for “MDVKNAFVETAMGVLSEFGFSSVFAEKNETGGLVEAEYVNVVMGVNGAISGNLIMTAKKESALAIASAMLGGMEFTEVDDMVKSAIGELLNIIAGNAFSKVDVKAAVYISTPTLLIGEGISVLLQSPGTNKLVFDMDGQSMDVFLDIE” here?
A: not soluble

Q: For “SDIEQKQAEIIDQLVKRASTCKSEALGPLIIEATSHPSLFAFSEILALPNVAQLEGTTDSVYLDLLRLFAHGTWGDYKCNATRLPHLSPDQILKLKQLTVLTLAESNKVLPYDTLMVELDVSNVRELEDFLINECMYAGIVRGKLDQLKRCFEVPFAAGRDLRPGQLGNMLHTLSNWLNTSENLLISIQDKIKWADNMSEMDKKHRKEAEEGVEEVKKSLSMKGDVDIRGNKEMFGEPSGVMDYEEDGIRPKRRRHPVTR”, which “soluble on expression in E. coli” value is on record?
A: soluble

Q: Which “soluble on expression in E. coli” value does the source give for “MASVSFGGLATGLDSNTLISQLMYLERAPERILESKKSTISSQIDVYTQVTNLLNSFKTLAAGMNTATGFMGKTTSVGDSTVATATSSSIASPGSFNLTVNSLAKNERQVVDQGYASADALNFKTGTFTISGVATPITIAEGQNSLQGIASAINASGANVTASIINDGSANPYRLVITGKDTNNYTLNFSGLTGDPASGSAYTTPTITKSGPTYQAGAAASFSVNGIAITKTSNIVTDVIPGVTLTLLKEGGATTTVTVGNDTSGVTKKINDFVGAYNAAMSQINKQSEYNATTKKGGVLSGDSTLRSVKTQLQNVLTTPVAGITGKYSTLADIGITTDRSNGTLTVDATKLADALGSNFNDVVELFTKNGGVSNLDTEKYGVAEQFRKVIDRFTHAYEGPSSTANGIISSRVRGLNDTIKSIDDQIDAMEVRMERKEEALKKQFTAMETLVSSLTTQGNSLISYLYGS” here?
A: not soluble

Q: Which “soluble on expression in E. coli” value does the source give for “MPSMAEIYVKELRERDPATVDTLFLDNAEDGQIGGLTDQLINLEMLSMVKCGLTTLAGFPTLPALTYLDISDNQLGDNASFDVLVKNAPDLKKITLASNKLSLDNLRCLKVLPNLFELDLSNNPSLGLLEDYREKMFEMIPSLKILDGCDVDGEEVEEEFAGEGGEDSEEGSGDEDGPGLSYLEKSQFSDDETDDYAPEGGDAEPRGTKRGASDNGEEPDNKKAAGDDE” here?
A: soluble

Q: Which “soluble on expression in E. coli” value does the source give for “KWFRIDHVQEAHDAGVAVEDLFTRQIKVNHVVTGSDLVIDIHHTLGLEIIVSRIERDGQQTLPTASSRIHMGDVLSVVGTAEELDKAAHVLGDLLPGDPFHGHDLDYRRIFVSNQDLVGIPLAKLRPRLSGILITRVRRGDHDHVATPETVLQLGDRVRVVAAHDRMKSVTALFGDSYRRLSD” here?
A: not soluble

Q: Which “soluble on expression in E. coli” value does the source give for “ANCSIMIDEIIHHLKRPPNPLLDPNNLNSEDMDILMERNLRTPNLLAFVRAVKHLENASAIESILKNLLPCLPLATAAPTRHPIHIKDGDWNEFRRKLTFYLKTLENAQAQQ” here?
A: soluble

Q: Which “soluble on expression in E. coli” value does the source give for “GSHMASMTGGQQMGRGSENLYFQGNPILAGLGFSLPKRQVSNHDLVGRINTSDEFIVERTGVRTRYHVEPEQAVSALMVPAARQAIEAAGLLPEDIDLLLVNTLSPDHHDPSQACLIQPLLGLRHIPVLDIRAQCSGLLYGLQMARGQILAGLARHVLVVCGEVLSKRMDCSDRGRNLSILLGDGAGAVVVSAGESLEDGLLDLRLGADGNYFDLLMTAAPGSASPTFLDENVLREGGGEFLMRGRPMFEHASQTLVRIAGEMLAAHELTLDDIDHVICHQPNLRILDAVQEQLGIPQHKFAVTVDRLGNMASASTPVTLAMFWPDIQPGQRVLVLTYGSGATWGAALYRKPEEVNRPC” here?
A: soluble

Q: For “MIILNIPLFKGLTLEQIEDMKNKHCMTEKKYKKNSFIFRAGDIVHEIGIVLEGSINIEMIDMWDNKSILSNIDVGQIFAESYALCNEPMMVDAVATKDSTILMLNMRQIFAPINNSASWYNTFTYNLLVLSTRKNLTLSTRIFCTSSKSVRGRVLTYLSNQSIKHNNTEFQIPFNRQQMADYLNLDRSALSKELGKMQDEGIITFNKNRFKLNINYDSEF”, which “soluble on expression in E. coli” value is on record?
A: not soluble

Q: For “MSLIAPVLKGKGVLITRAKEQASSLSRLIEEAGGVPIEVPLLSFIKTMDVYEEVGASIQSYEWIVFTSANAVRFFFNTWPRQELKKLPSIAAVGSSTQRELSRYGISVDLMPNEYVAESLVETMVKRLKPCRVLFPKGNLARPTVKVGLETNGFIVDEMTVYETKRPLEAKVMLCEAFQKHRIEIITFTSPSAVDHFVTLLDREFILHEHLLYAYIGPIAAARAKQRGLPVHIVAKTYTGEGLVNAICDFVKEDGEGHHHHHH”, which “soluble on expression in E. coli” value is on record?
A: soluble

Q: Which “soluble on expression in E. coli” value does the source give for “MIKTRDQSIFDEMFKRIQSLGFKVYDYKPMTEVPYPFVEMESTDAEYIPNKDDIKGSVELMLSVWGVQKKRKQVSDMASAIFSQALTVESSDVFRWSLNTRQSSIQMLDDTTTVTPLKRAIVTLRFNLR” here?
A: not soluble
